Measurements from publication PMC8754659.
pKd: −log10 of the molar value.

Experiments:
[1] = target: BH-REC1 fragment of NmeCas9 (Neisseria meningitides); experiment: ITC
[2] = target: NmeCas9 (Neisseria meningitides) (UniProt C9X1G5); experiment: ITC
Sequence of NmeCas9 (Neisseria meningitides) (C9X1G5 whole entry): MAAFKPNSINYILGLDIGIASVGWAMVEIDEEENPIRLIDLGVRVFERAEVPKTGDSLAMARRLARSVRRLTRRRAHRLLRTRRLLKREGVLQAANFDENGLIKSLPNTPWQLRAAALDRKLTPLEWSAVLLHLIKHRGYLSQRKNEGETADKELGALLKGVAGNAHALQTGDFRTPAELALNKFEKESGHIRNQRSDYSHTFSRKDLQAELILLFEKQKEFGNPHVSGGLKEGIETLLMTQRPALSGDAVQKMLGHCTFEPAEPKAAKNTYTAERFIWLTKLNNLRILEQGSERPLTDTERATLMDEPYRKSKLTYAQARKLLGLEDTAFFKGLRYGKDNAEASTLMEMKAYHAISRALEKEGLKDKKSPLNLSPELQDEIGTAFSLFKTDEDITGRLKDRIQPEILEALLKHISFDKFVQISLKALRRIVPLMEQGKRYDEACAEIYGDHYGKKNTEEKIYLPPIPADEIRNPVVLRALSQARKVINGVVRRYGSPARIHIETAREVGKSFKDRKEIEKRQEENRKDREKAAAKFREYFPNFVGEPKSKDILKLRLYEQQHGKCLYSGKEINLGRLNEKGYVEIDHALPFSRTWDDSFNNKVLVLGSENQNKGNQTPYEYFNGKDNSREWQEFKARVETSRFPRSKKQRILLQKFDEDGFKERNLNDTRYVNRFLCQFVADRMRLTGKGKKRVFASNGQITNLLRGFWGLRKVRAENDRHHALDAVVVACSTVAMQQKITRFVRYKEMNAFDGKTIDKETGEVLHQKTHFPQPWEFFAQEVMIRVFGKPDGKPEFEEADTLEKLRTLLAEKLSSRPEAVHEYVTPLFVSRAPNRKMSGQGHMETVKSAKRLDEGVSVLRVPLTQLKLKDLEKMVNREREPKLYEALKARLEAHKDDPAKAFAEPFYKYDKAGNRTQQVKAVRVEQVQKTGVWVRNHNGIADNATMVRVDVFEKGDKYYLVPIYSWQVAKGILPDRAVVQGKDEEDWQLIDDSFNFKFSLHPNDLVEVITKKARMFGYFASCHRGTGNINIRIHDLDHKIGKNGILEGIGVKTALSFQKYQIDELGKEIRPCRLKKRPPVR

Substance | fold reduction in binding affinity against wild-type AcrIIA17 [1] | fold reduction of the binding affinity in high salt against 300 mM salt [1] | pKd [2] | stoichiometry N [2]
AcrIIA17 D81A/E84A mutant (natural protein) | 20 fold | – | – | –
AcrIIA17 (natural protein) | – | 10 fold | 8.30 | 1
